Each block holds one binder with its values, some of them ahead of it.
How the values were obtained:
[1] = biological target: T1, full-length C9orf72-SMCR8 complex (GST-tagged) (human, UniProt Q96LT7 1-481; Q8TEV9 1-937); test: SEC; reconstitution of the trimeric complex from purified C9orf72-SMCR8 and WDR41; Superose 6 10/300 GL, 20 mM HEPES pH 8.0, 150 mM NaCl, 2 mM DTT, 3% glycerol; settings: both partners purified
T1 construct: C9orf72, human, the longer isoform (481 AA); codon-optimised synthetic open reading frame; SMCR8, human, from a human cDNA library; GST on C9orf72 is stated for the GST pull-down; also called GST-tagged C9orf72-SMCR8; source: Sf-9 insect cells, the two proteins co-expressed, purified (Strep-Tactin, size-exclusion chromatography); not shown: GST, N-terminal, kept
T1 sequence (looked up) 1: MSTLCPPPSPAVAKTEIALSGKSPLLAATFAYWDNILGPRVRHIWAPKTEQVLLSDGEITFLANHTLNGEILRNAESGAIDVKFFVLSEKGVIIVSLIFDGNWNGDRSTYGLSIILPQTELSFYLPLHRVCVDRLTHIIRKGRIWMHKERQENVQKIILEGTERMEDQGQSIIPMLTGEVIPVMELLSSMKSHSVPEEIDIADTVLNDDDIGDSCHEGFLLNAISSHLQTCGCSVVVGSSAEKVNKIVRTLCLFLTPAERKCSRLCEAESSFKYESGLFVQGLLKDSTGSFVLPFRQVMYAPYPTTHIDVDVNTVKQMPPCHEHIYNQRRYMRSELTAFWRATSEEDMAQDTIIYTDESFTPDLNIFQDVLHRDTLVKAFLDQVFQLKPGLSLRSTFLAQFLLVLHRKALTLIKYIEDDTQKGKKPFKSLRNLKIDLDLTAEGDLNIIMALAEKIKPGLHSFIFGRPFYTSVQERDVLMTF
T1 sequence (looked up) 2: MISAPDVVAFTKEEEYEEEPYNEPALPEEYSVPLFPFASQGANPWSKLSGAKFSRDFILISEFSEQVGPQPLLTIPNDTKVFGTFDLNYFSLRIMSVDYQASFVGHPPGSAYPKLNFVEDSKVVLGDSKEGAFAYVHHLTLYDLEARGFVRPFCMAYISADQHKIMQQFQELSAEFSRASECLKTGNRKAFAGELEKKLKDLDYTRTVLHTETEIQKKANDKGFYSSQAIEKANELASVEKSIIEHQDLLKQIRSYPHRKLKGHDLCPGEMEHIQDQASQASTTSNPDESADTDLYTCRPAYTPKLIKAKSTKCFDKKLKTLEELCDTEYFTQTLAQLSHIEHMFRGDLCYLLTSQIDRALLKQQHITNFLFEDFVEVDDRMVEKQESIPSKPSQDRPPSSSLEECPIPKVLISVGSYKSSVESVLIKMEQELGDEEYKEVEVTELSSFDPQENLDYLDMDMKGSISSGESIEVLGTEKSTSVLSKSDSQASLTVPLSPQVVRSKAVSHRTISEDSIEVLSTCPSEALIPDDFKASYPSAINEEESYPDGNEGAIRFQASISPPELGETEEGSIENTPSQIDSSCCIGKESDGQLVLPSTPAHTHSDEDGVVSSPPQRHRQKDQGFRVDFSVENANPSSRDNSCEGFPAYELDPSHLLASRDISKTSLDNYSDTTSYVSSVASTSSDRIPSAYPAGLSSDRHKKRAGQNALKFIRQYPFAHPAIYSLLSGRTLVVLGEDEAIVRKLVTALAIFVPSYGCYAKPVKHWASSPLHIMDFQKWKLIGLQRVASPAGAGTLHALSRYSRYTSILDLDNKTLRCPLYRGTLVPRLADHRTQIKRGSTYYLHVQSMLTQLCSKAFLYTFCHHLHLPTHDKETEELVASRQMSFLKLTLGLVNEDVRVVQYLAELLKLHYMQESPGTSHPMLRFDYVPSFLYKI

SMCR8 (full-length) = biological target: T2, SMCR8 (full-length) (human, UniProt Q8TEV9 1-937); test: cross-linking; DSSO (0.5 to 10 mM, 1 hour at room temperature) on C9orf72-SMCR8 complex mixed with WDR41 in equimolar ratio (200 pmol) in 20 mM HEPES pH 8.0, 150 mM NaCl, 2 mM DTT, 3% glycerol; mass spectrometry after digestion; settings: both partners purified
T2 construct: SMCR8, human, open reading frame amplified from a human cDNA library; residues 1-937; also called SMCR8 Fl; source: Sf-9 insect cells, co-expressed with C9orf72, purified (Strep-Tactin, size-exclusion chromatography)
T2 sequence (looked up): T1 sequence (looked up) 2

[2] = biological target: T3, Strep-SMCR8ΔCC (SMCR8 mutant lacking its coiled-coil region) (human, UniProt Q8TEV9 1-937, missing residues 181 to 250); test: affinity purification with mass spectrometry; Strep-SMCR8 (WT or ΔCC) and C9orf72 transfected into HEK293T; cells fed or starved 90 minutes (amino acid- and glucose-free media) before lysis; magnetic Strep-Tactin beads; label-free quantification (LFQ), triplicates; settings: partners not purified
T3 construct: SMCR8, human, lacking the coiled-coil region (missing residues 181 to 250); Cloned into pOPINE-3C-eGFP; source: HEK293T, transfected together with C9orf72, in lysate; not shown: twin-strep, N-terminal, kept
T3 sequence (looked up): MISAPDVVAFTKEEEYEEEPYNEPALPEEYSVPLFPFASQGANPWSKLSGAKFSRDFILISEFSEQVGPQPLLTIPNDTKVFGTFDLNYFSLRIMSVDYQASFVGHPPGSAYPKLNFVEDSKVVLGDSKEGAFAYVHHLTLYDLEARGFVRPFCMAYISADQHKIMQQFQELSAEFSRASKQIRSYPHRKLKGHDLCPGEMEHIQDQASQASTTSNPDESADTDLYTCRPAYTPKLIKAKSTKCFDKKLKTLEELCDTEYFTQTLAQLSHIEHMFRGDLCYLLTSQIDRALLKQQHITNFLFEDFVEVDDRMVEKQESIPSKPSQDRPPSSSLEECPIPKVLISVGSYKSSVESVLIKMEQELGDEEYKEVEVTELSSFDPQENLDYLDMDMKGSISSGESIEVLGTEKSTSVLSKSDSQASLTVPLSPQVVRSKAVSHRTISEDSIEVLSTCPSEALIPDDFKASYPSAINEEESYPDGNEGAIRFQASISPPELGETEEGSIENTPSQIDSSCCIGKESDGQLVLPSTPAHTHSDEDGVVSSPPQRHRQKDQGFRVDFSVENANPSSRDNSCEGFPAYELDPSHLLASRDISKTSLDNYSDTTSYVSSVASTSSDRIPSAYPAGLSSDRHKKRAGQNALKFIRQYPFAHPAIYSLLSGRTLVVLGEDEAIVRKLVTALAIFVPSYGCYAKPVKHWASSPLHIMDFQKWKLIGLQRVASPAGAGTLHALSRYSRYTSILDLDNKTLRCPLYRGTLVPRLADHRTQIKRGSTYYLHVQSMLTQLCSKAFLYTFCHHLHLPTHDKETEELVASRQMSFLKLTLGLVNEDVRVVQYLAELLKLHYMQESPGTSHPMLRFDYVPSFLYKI

C9orf72 (full-length) = biological target: T4, C9orf72 (full-length) (human, UniProt Q96LT7 1-481); test: SEC; limited proteolysis: full-length C9orf72-SMCR8-WDR41 complex (0.93 mg) with trypsin (4.6 ug) 20 minutes on ice, then size-exclusion chromatography; bands of the peak fraction identified by tandem mass spectrometry; settings: both partners purified
T4 construct: C9orf72, human, the longer isoform (481 AA); open reading frame commercially synthesized with codon optimization; also called Fl-C9orf72; C9orf72 Fl; source: Sf-9 insect cells, co-expressed with SMCR8 or SMCR8N-C, purified (Strep-Tactin, size-exclusion chromatography)
T4 sequence (looked up): T1 sequence (looked up) 1

B1: WDR41 (full-length) (natural protein, human, UniProt Q9HAD4 1-459, looked up)
chain: MLRWLIGGGREPQGLAEKSPLQTIGEEQTQNPYTELLVLKAHHDIVRFLVQLDDYRFASAGDDGIVVVWNAQTGEKLLELNGHTQKITAIITFPSLESCEEKNQLILTASADRTVIVWDGDTTRQVQRISCFQSTVKCLTVLQRLDVWLSGGNDLCVWNRKLDLLCKTSHLSDTGISALVEIPKNCVVAAVGKELIIFRLVAPTEGSLEWDILEVKRLLDHQDNILSLINVNDLSFVTGSHVGELIIWDALDWTMQAYERNFWDPSPQLDTQQEIKLCQKSNDISIHHFTCDEENVFAAVGRGLYVYSLQMKRVIACQKTAHDSNVLHVARLPNRQLISCSEDGSVRIWELREKQQLAAEPVPTGFFNMWGFGRVSKQASQPVKKQQENATSCSLELIGDLIGHSSSVEMFLYFEDHGLVTCSADHLIILWKNGERESGLRSLRLFQKLEENGDLYLAV
notes: WDR41, human, open reading frame amplified from a human cDNA library; also called WDR41 Fl; source: Sf-9 insect cells, expressed individually, purified (Strep-Tactin, size-exclusion chromatography)
binding result [1]: binds | binding result (SMCR8 (full-length)): binds

B2: WDR41 (in HEK293T cells) (natural protein, human (endogenous in HEK293T), UniProt Q9HAD4 1-459, looked up)
chain: B1 chain
notes: WDR41, found by mass spectrometry in Strep-Tactin purifications from HEK293T cells (only SMCR8 and C9orf72 plasmids were transfected); source: endogenous, HEK293T lysate
fold increase of WDR41 (LFQ) against SMCR8 WT fed, fed cells [2]: ~4.5 fold | fold increase of WDR41 (LFQ) against SMCR8 WT fed, starved cells [2]: ~5.5 fold

The next lines start with the values.

binding result (C9orf72 (full-length)): binds
B3: carboxyl-terminal domain of SMCR8 (SMCR8C), tryptic fragment (domain or fragment, human, UniProt Q8TEV9 620-937, looked up)
chain: RQKDQGFRVDFSVENANPSSRDNSCEGFPAYELDPSHLLASRDISKTSLDNYSDTTSYVSSVASTSSDRIPSAYPAGLSSDRHKKRAGQNALKFIRQYPFAHPAIYSLLSGRTLVVLGEDEAIVRKLVTALAIFVPSYGCYAKPVKHWASSPLHIMDFQKWKLIGLQRVASPAGAGTLHALSRYSRYTSILDLDNKTLRCPLYRGTLVPRLADHRTQIKRGSTYYLHVQSMLTQLCSKAFLYTFCHHLHLPTHDKETEELVASRQMSFLKLTLGLVNEDVRVVQYLAELLKLHYMQESPGTSHPMLRFDYVPSFLYKI
notes: SMCR8, human, residues 620 to 937, product of limited proteolysis identified by mass spectrometry; source: Sf-9 insect cells; purified full-length C9orf72-SMCR8-WDR41 complex cut with trypsin

binding result (C9orf72 (full-length)): binds
B4: N-terminal domain of SMCR8 (SMCR8N), tryptic fragment (domain or fragment, human, UniProt Q8TEV9 1-439, looked up)
chain: MISAPDVVAFTKEEEYEEEPYNEPALPEEYSVPLFPFASQGANPWSKLSGAKFSRDFILISEFSEQVGPQPLLTIPNDTKVFGTFDLNYFSLRIMSVDYQASFVGHPPGSAYPKLNFVEDSKVVLGDSKEGAFAYVHHLTLYDLEARGFVRPFCMAYISADQHKIMQQFQELSAEFSRASECLKTGNRKAFAGELEKKLKDLDYTRTVLHTETEIQKKANDKGFYSSQAIEKANELASVEKSIIEHQDLLKQIRSYPHRKLKGHDLCPGEMEHIQDQASQASTTSNPDESADTDLYTCRPAYTPKLIKAKSTKCFDKKLKTLEELCDTEYFTQTLAQLSHIEHMFRGDLCYLLTSQIDRALLKQQHITNFLFEDFVEVDDRMVEKQESIPSKPSQDRPPSSSLEECPIPKVLISVGSYKSSVESVLIKMEQELGDEEYK
notes: SMCR8, human, residues 1 to 439, product of limited proteolysis identified by mass spectrometry; source: Sf-9 insect cells; purified full-length C9orf72-SMCR8-WDR41 complex cut with trypsin

From article PMC8336837, “Structure of the human C9orf72-SMCR8 complex reveals a multivalent protein interaction architecture” (PLoS Biology, 2021)
